Test results reported in patent publication US20250352667A1.
Blank lines part the entries; values can stand above or below the binder they belong to.

Tests used:
[1] = molecular target: KEAP1 (wild-type full-length), His-tagged (human) (UniProt Q14145); test: AlphaScreen; FLAG-NRF2 wt isoform 1 19.2 nM, His-KEAP1 150 nM; Rep 2; positive control for Q75R
[2] = molecular target: KEAP1 (wild-type full-length), His-tagged (human) (UniProt Q14145); test: AlphaScreen; 38.4 nM FLAG-NRF2, 150 nM His-KEAP1; Repeat 2 (same value as in Table 26)
[3] = molecular target: KEAP1 (wild-type full-length), His-tagged (human) (UniProt Q14145); test: AlphaScreen; FLAG-NRF2 wt isoform 1 153.6 nM, His-KEAP1 150 nM; Rep 1; positive control for Q75R
[4] = molecular target: KEAP1 (wild-type full-length), His-tagged (human) (UniProt Q14145); test: AlphaScreen; NRF2 wt isoform 1 614.4 nM, KEAP1 150 nM; signal against NRF2-only control; control for Q75R
[5] = molecular target: KEAP1 (wild-type full-length), His-tagged (human) (UniProt Q14145); test: AlphaScreen; FLAG-NRF2 wt isoform 1 307.2 nM, His-KEAP1 150 nM; Rep 1; positive control for Q75R
[6] = molecular target: KEAP1 (wild-type full-length), His-tagged (human) (UniProt Q14145); test: AlphaScreen; 76.8 nM FLAG-NRF2, 150 nM His-KEAP1; Rep 2; control for I86V
[7] = molecular target: KEAP1 (wild-type full-length), His-tagged (human) (UniProt Q14145); test: AlphaScreen; 9.6 nM FLAG-NRF2, 150 nM His-KEAP1; Repeat 2 (same value as in Table 26)
[8] = molecular target: KEAP1 (wild-type full-length), His-tagged (human) (UniProt Q14145); test: AlphaScreen; 4.8 nM FLAG-NRF2, 150 nM His-KEAP1; Rep 1; control for I28V
[9] = molecular target: KEAP1 (wild-type full-length), His-tagged (human) (UniProt Q14145); test: AlphaScreen; 614.4 nM FLAG-NRF2, 150 nM His-KEAP1; signal against NRF2 only; control for I86V
[10] = molecular target: KEAP1 (wild-type full-length), His-tagged (human) (UniProt Q14145); test: AlphaScreen; NRF2 wt isoform 1 19.2 nM, KEAP1 150 nM; signal against NRF2-only control; control for Q75R
[11] = molecular target: KEAP1 (wild-type full-length), His-tagged (human) (UniProt Q14145); test: AlphaScreen; NRF2 wt isoform 1 38.4 nM, KEAP1 150 nM; set as the 100 % reference for Q75R
[12] = molecular target: KEAP1 (wild-type full-length), His-tagged (human) (UniProt Q14145); test: AlphaScreen; NRF2 I86V 19.2 nM, KEAP1 150 nM; signal against NRF2-only control
[13] = molecular target: KEAP1 (wild-type full-length), His-tagged (human) (UniProt Q14145); test: AlphaScreen; FLAG-NRF2 I86V 19.2 nM, His-KEAP1 150 nM; Rep 3
[14] = molecular target: KEAP1 (wild-type full-length), His-tagged (human) (UniProt Q14145); test: AlphaScreen; FLAG-NRF2 I86V 614.4 nM, His-KEAP1 150 nM; Rep 2
[15] = molecular target: KEAP1 (wild-type full-length), His-tagged (human) (UniProt Q14145); test: AlphaScreen; FLAG-NRF2 I86V 2.4 nM, His-KEAP1 150 nM; Rep 2
[16] = molecular target: KEAP1 (wild-type full-length), His-tagged (human) (UniProt Q14145); test: AlphaScreen; FLAG-NRF2 I86V 614.4 nM, His-KEAP1 150 nM; Rep 3
[17] = molecular target: KEAP1 (wild-type full-length), His-tagged (human) (UniProt Q14145); test: AlphaScreen; 9.6 nM FLAG-NRF2, 150 nM His-KEAP1; Rep 1
[18] = molecular target: KEAP1 (wild-type full-length), His-tagged (human) (UniProt Q14145); test: AlphaScreen; 614.4 nM FLAG-NRF2, 150 nM His-KEAP1; Rep 1
[19] = molecular target: KEAP1 (wild-type full-length), His-tagged (human) (UniProt Q14145); test: AlphaScreen; 9.6 nM FLAG-NRF2, 150 nM His-KEAP1; Repeat 1 (same value as in Table 27)
[20] = molecular target: KEAP1 (wild-type full-length), His-tagged (human) (UniProt Q14145); test: AlphaScreen; 307.2 nM FLAG-NRF2, 150 nM His-KEAP1; Rep 2
[21] = molecular target: KEAP1 (wild-type full-length), His-tagged (human) (UniProt Q14145); test: AlphaScreen; 19.2 nM FLAG-NRF2, 150 nM His-KEAP1; Rep 1
[22] = molecular target: KEAP1 (wild-type full-length), His-tagged (human) (UniProt Q14145); test: AlphaScreen; 38.4 nM FLAG-NRF2, 150 nM His-KEAP1; signal against NRF2 only
[23] = molecular target: KEAP1 (wild-type full-length), His-tagged (human) (UniProt Q14145); test: AlphaScreen; NRF2 Q75R 9.6 nM, KEAP1 150 nM; relative to wild-type NRF2 isoform 1 (100 %)
[24] = molecular target: KEAP1 (wild-type full-length), His-tagged (human) (UniProt Q14145); test: AlphaScreen; FLAG-NRF2 Q75R 4.8 nM, His-KEAP1 150 nM; Rep 2
[25] = molecular target: KEAP1 (wild-type full-length), His-tagged (human) (UniProt Q14145); test: AlphaScreen; NRF2 Q75R 9.6 nM, KEAP1 150 nM; signal against NRF2-only control
[26] = molecular target: KEAP1 (wild-type full-length), His-tagged (human) (UniProt Q14145); test: AlphaScreen; NRF2 Q75R 307.2 nM, KEAP1 150 nM; signal against NRF2-only control
[27] = molecular target: KEAP1 (wild-type full-length), His-tagged (human) (UniProt Q14145); test: AlphaScreen; FLAG-NRF2 Q75R 153.6 nM, His-KEAP1 150 nM; Rep 1

Sequence of KEAP1 (wild-type full-length), His-tagged (human) (Q14145 2-624 limits assumed): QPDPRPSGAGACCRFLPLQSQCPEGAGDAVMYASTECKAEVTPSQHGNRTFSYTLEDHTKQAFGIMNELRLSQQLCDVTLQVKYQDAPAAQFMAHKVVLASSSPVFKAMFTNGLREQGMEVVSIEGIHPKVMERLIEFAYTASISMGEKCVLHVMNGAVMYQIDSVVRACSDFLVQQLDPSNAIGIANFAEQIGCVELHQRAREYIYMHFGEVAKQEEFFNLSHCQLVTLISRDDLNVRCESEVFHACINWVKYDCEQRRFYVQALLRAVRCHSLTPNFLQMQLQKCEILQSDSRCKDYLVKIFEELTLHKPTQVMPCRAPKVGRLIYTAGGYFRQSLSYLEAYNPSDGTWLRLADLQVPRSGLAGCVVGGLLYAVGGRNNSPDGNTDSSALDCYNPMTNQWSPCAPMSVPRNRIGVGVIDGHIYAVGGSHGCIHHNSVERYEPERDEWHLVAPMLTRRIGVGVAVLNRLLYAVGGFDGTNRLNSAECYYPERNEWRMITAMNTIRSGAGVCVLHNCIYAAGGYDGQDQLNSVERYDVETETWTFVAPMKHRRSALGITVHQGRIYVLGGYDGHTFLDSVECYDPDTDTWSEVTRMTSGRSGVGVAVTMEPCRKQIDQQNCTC

- A-counts (NRF2 plus KEAP1) [1]: 1480 A-counts
- A-counts [2]: 1900 A-counts
- A-counts (NRF2 plus KEAP1) [3]: 1380 A-counts
- S/N [4]: 1
- A-counts (NRF2 plus KEAP1) [5]: 1560 A-counts
- A-counts [6]: 2780 A-counts
- A-counts [7]: 1640 A-counts
- A-counts [8]: 1120 A-counts
- S/N [9]: 1.1
- S/N [10]: 3.4
- Binding Percentage [11]: 100%
B1: NRF2 isoform 1 (wild-type full-length), FLAG-tagged (protein)
chain: MMDLELPPPGLPSQQDMDLIDILWRQDIDLGVSREVFDFSQRRKEYELEKQKKLEKERQEQLQKEQEKAFFAQLQLDEETGEFLPIQPAQHIQSETSGSANYSQVAHIPKSDALYFDDCMQLLAQTFPFVDDNEVSSATFQSLVPDIPGHIESPVFIATNQAQSPETSVAQVAPVDLDGMQQDIEQVWEELLSIPELQCLNIENDKLVETTMVPSPEAKLTEVDNYHFYSSIPSMEKEVGNCSPHFLNAFEDSFSSILSTEDPNQLTVNSLNSDATVNTDFGDEFYSAFIAEPSISNSMPSPATLSHSLSELLNGPIDVSDLSLCKAFNQNHPESTAEFNDSDSGISLNTSPSVASPEHSVESSSYGDTLLGLSDSEVEELDSAPGSVKQNGPKTPVHSSGDMVQPLSPSQGQSTHVHDAQCENTPEKELPVSPGHRKTPFTKDKHSSRLEAHLTRDELRAKALHIPFPVEKIINLPVVDFNEMMSKEQFNEAQLALIRDIRRRGKNKVAAQNCRKRKLENIVELEQDLDHLKDEKEKLLKEKGENDKSLHLLKKQLSTLYLEVFSMLRDEDGKPYSPSEYSLQQTRDGNVFLVPKSKKPDVKKN

- S/N [12]: 4
- A-counts (NRF2 plus KEAP1) [13]: 2970 A-counts
- A-counts (NRF2 plus KEAP1) [14]: 1970 A-counts
- A-counts (NRF2 plus KEAP1) [15]: 1610 A-counts
- A-counts (NRF2 plus KEAP1) [16]: 1920 A-counts
B2: NRF2 isoform 1 (I86V full-length), FLAG-tagged (protein)
chain: MMDLELPPPGLPSQQDMDLIDILWRQDIDLGVSREVFDFSQRRKEYELEKQKKLEKERQEQLQKEQEKAFFAQLQLDEETGEFLPVQPAQHIQSETSGSANYSQVAHIPKSDALYFDDCMQLLAQTFPFVDDNEVSSATFQSLVPDIPGHIESPVFIATNQAQSPETSVAQVAPVDLDGMQQDIEQVWEELLSIPELQCLNIENDKLVETTMVPSPEAKLTEVDNYHFYSSIPSMEKEVGNCSPHFLNAFEDSFSSILSTEDPNQLTVNSLNSDATVNTDFGDEFYSAFIAEPSISNSMPSPATLSHSLSELLNGPIDVSDLSLCKAFNQNHPESTAEFNDSDSGISLNTSPSVASPEHSVESSSYGDTLLGLSDSEVEELDSAPGSVKQNGPKTPVHSSGDMVQPLSPSQGQSTHVHDAQCENTPEKELPVSPGHRKTPFTKDKHSSRLEAHLTRDELRAKALHIPFPVEKIINLPVVDFNEMMSKEQFNEAQLALIRDIRRRGKNKVAAQNCRKRKLENIVELEQDLDHLKDEKEKLLKEKGENDKSLHLLKKQLSTLYLEVFSMLRDEDGKPYSPSEYSLQQTRDGNVFLVPKSKKPDVKKN

- A-counts [17]: 1570 A-counts
- A-counts [18]: 1220 A-counts
- A-counts [19]: 1570 A-counts
- A-counts [20]: 1260 A-counts
- A-counts [21]: 1730 A-counts
- S/N [22]: 2.7
B3: NRF2 isoform 1 (I28V full-length), FLAG-tagged (protein)
chain: MMDLELPPPGLPSQQDMDLIDILWRQDVDLGVSREVFDFSQRRKEYELEKQKKLEKERQEQLQKEQEKAFFAQLQLDEETGEFLPIQPAQHIQSETSGSANYSQVAHIPKSDALYFDDCMQLLAQTFPFVDDNEVSSATFQSLVPDIPGHIESPVFIATNQAQSPETSVAQVAPVDLDGMQQDIEQVWEELLSIPELQCLNIENDKLVETTMVPSPEAKLTEVDNYHFYSSIPSMEKEVGNCSPHFLNAFEDSFSSILSTEDPNQLTVNSLNSDATVNTDFGDEFYSAFIAEPSISNSMPSPATLSHSLSELLNGPIDVSDLSLCKAFNQNHPESTAEFNDSDSGISLNTSPSVASPEHSVESSSYGDTLLGLSDSEVEELDSAPGSVKQNGPKTPVHSSGDMVQPLSPSQGQSTHVHDAQCENTPEKELPVSPGHRKTPFTKDKHSSRLEAHLTRDELRAKALHIPFPVEKIINLPVVDFNEMMSKEQFNEAQLALIRDIRRRGKNKVAAQNCRKRKLENIVELEQDLDHLKDEKEKLLKEKGENDKSLHLLKKQLSTLYLEVFSMLRDEDGKPYSPSEYSLQQTRDGNVFLVPKSKKPDVKKN

- Binding Percentage [23]: 72.4%
- A-counts (NRF2 plus KEAP1) [24]: 819 A-counts
- S/N [25]: 2.4
- S/N [26]: 1
- A-counts (NRF2 plus KEAP1) [27]: 1070 A-counts
B4: NRF2 isoform 1 (Q75R full-length), FLAG-tagged (protein)
chain: MMDLELPPPGLPSQQDMDLIDILWRQDIDLGVSREVFDFSQRRKEYELEKQKKLEKERQEQLQKEQEKAFFAQLRLDEETGEFLPIQPAQHIQSETSGSANYSQVAHIPKSDALYFDDCMQLLAQTFPFVDDNEVSSATFQSLVPDIPGHIESPVFIATNQAQSPETSVAQVAPVDLDGMQQDIEQVWEELLSIPELQCLNIENDKLVETTMVPSPEAKLTEVDNYHFYSSIPSMEKEVGNCSPHFLNAFEDSFSSILSTEDPNQLTVNSLNSDATVNTDFGDEFYSAFIAEPSISNSMPSPATLSHSLSELLNGPIDVSDLSLCKAFNQNHPESTAEFNDSDSGISLNTSPSVASPEHSVESSSYGDTLLGLSDSEVEELDSAPGSVKQNGPKTPVHSSGDMVQPLSPSQGQSTHVHDAQCENTPEKELPVSPGHRKTPFTKDKHSSRLEAHLTRDELRAKALHIPFPVEKIINLPVVDFNEMMSKEQFNEAQLALIRDIRRRGKNKVAAQNCRKRKLENIVELEQDLDHLKDEKEKLLKEKGENDKSLHLLKKQLSTLYLEVFSMLRDEDGKPYSPSEYSLQQTRDGNVFLVPKSKKPDVKKN
